According to the supplement of paper PMC9170038:

Tested on: MS2 coat protein
Assay: apparent KD of MS2 coat protein; designed switch direction (-1 OFF switch, 1 ON switch): -1; higher = weaker reporter binding
Method in brief: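 Three titration conditions were used: no input, 200 uM small-molecule ligand, and an oligonucleotide input. In each, SNAP-549-labelled MS2 coat protein was raised from 0.7 or 1.5 nM, doubling, to 3 µM over designed RNA switches transcribed on Illumina chips by stalled E. coli RNA polymerase. Curve fits of normalised cluster fluorescence gave values whose per-design median over clusters is the apparent KD.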

[1] = Eterna round: R95, input ligand: FMN 200 uM
[2] = Eterna round: R95, input ligand: microRNA oligo, concentration not stated
[3] = Eterna round: R95, input ligand: none
[4] = input ligand: microRNA oligo, concentration not stated

| Sequence | apparent KD of MS2 coat protein (input ligand: FMN 200 uM) [nM] | apparent KD of MS2 coat protein (input ligand: none) [nM] | apparent KD of MS2 coat protein [1] [nM] | apparent KD of MS2 coat protein [2] [nM] | apparent KD of MS2 coat protein [3] [nM] | apparent KD of MS2 coat protein [4] [nM] |
| --- | --- | --- | --- | --- | --- | --- |
| GCGACUGGAGGAUAUACAUGAGGAUCACCCAUGUGAUCUAAAAGGGUCUUAUGCCGGUGUAGAAGGCCGAGCAG [Eternabot (L2) Solution 84] (Eterna round: R97, puzzle: Exclusion 3) | 26.7 | 27.3 | – | – | – | – |
| GCCAGAGCAGGAUAUUCAAUAUGUCACAUGAGGAUCACCCAUGUCCAGCGAAAGCUGGAGGGAGAAGGGCUCUGGC [Fiskers Ex 5 - 18] (puzzle: Exclusion 5) | – | – | 23.7 | 89.3 | 119 | – |
| GCACGGAGUGUAGGAUAUCUGUGCGAUUAGCUCAGAGAAGGACACAUGAGGAUCACCCAUGUGUUCCAGCGAAAGCUUCCGUGC [Eli exng1 - 047] (Eterna round: R96, puzzle: Exclusion NG 1) | 8.15 | 10.6 | – | – | – | 9.32 |
| UCAUGUUAGCAGGAUAUGCUAUUUAUUUUUUAUGCAGAAGGGCUUACAUGAGGAUCACCCAUGUAUUAAGUUUU [JR_E6_Sub074] (puzzle: Exclusion 6) | – | – | – | 115 | – | – |
| CCCAGGUCAUCUCCCGGGAACAACAUGAGGAUCACCCAUGUCUAGGAUAUCCACCAGUCAAUAAAGGAGAAGGAGACGGUGGUU [Edatarte] (Eterna round: R96, puzzle: Exclusion NG 3) | – | – | – | – | – | 20.2 |
| CCAUCACAUGAGGAUCACCCAUGUUAGGAUAUCGUGCUGAUACCAUGUAUUGAAGUAGCGAGAAGGAGCGUUGG [Eternabot (L1) Solution 53] (Eterna round: R97, puzzle: Exclusion 1) | 83.6 | 48 | – | – | – | – |
| AUUAUUUAAGUCAGGAUAUCGUAUUUAAUUAAAUACGAGAAGGGACAUGAGGAUCACCCAUGUAAUAAAUUUUA [JMFs Solution 1] (puzzle: Brourd's mod of Exclusion 4) | – | – | 24.1 | 14.2 | 15.9 | – |
| UUAACAUGCUGGUGAUCAUACAUGAGGAUCACCCAUGUAACAAGCUUUUUGCUCGUCUUAAUUUAAUUGAUUACUAG [Stov1/8-A1] (Eterna round: R97, puzzle: Sensor, turn-off variant 1) | 120 | 134 | – | – | – | – |
| AGAGUGCUGCGAGGAUAUACAUGAGGAUCACCCAUGUGGAUCUGUGAGGGAAAACCUCACAGGAUGUAGAAGGCGCAGUACUCA [Mat - Exclusion NG 2 - Mod of JL - D50] (Eterna round: R96, puzzle: Exclusion NG 2) | 134 | 37.2 | – | – | – | 15.8 |
| UCACGGGACUGAGGAUAUACAUCAACAAUGGUUGUAGAAGGCAGAAGGUUGAAUCAUAUACUAAACAUGAGGAUCACCCAUGUU [JR_ExcNG1_Sub031] (Eterna round: R96, puzzle: Exclusion NG 1) | 16.4 | 24.1 | – | – | – | 16.6 |
| CAUAGUAAUUAGGAUAUCUGCCGGCUGAGCCGAGGAGAAGGGAUUACAUGAGGAUCACCCAUGUGGUCCUAGAA [Lebireti] (puzzle: Exclusion 6) | – | – | 31.3 | 20.1 | 19.9 | – |
| UGUUGUUACGCAGGAUAUUGUCAACAGGCAAUAGGAUAUCCGAAAGGAGAAGGAUCGCCAACAGGCGAGAAGGGCGGGUUAACA [pwkr exNG2 2xF7 2xFMN.1] (Eterna round: R96, puzzle: Exclusion NG 2) | 133 | 2630 | – | – | – | 1580 |
| AAUAACAGAGGAUAUACUAUUUUAUGUGUUUGUUAUUUUAAACAUGAGGAUCACCCAUGUAGAAGGCUGAAUAA [JMF 14] (puzzle: Exclusion 2) | – | – | – | 19.1 | – | – |
| AGUACUAACACGAAAGUGUUAGUACAAUAAGCUUGUGAAACAUGAGGAUCACCCAUGUCCUCAUAUGCUCGUCUUAU [salish99_TOv2_r3_053] (puzzle: Sensor v3, turn-off variant 2) | – | – | 471 | 822 | 641 | – |
| UGGUGUGAAGGAUAUACAUGAGGAUCACCCAUGUAUGAGGUGUGUGUUGAGGUGGAGGGUAGAAGGUCAGGUGG [JR_Exclusion3_Sub013] (puzzle: Exclusion 3) | – | – | – | 32.2 | – | – |
| CCGAAUAAGCAGGAUAUCGAAUCGGAAACGAUUCGAGAAGGGUUAACAUGAGGAUCACCCAUGUUCCUUAACGG [Mat - Exclusion 6 - Eli Mod - D78] (puzzle: Exclusion 6) | – | – | – | 19.2 | – | – |
| UGACGAGUAGGAUAUUGGACUUGCGACAUGAGGAUCACCCAUGUGACGUCAACGUGGCACCAAGAAGGGCUACGUC [Gelareusdi] (Eterna round: R96, puzzle: Exclusion 5) | 53.4 | 63.3 | – | – | – | 49.3 |

| Sequence | apparent KD of MS2 coat protein (input ligand: FMN 200 uM) [nM] | apparent KD of MS2 coat protein (input ligand: none) [nM] | apparent KD of MS2 coat protein [1] [nM] | apparent KD of MS2 coat protein [2] [nM] | apparent KD of MS2 coat protein [3] [nM] | apparent KD of MS2 coat protein [4] [nM] |
| --- | --- | --- | --- | --- | --- | --- |
| CCCUCACAUGAGGAUCACCCAUGUCAGGAUAUUCAAAGCGCAAAUGCGCCAAAUGCAGGAAGAAGGGACGUGCC [Bisoar] (Eterna round: R96, puzzle: Exclusion 1) | 18.6 | 15 | – | – | – | 10.3 |
| AGUACUAACACGAAAGUGUUAGUACUAUAAGCUUGUGAUACAUGAGGAUCACCCAUGUCCUCAUAAGCUCGUCUUAU [Mat - Sensor v3 - Turn-off var 2 - D101] (puzzle: Sensor v3, turn-off variant 2) | – | – | 19 | 1820 | 19.6 | – |
| CUGGUCCGAGGAUAUAUUAUGUGAUACAUGAGGAUCACCCAUGUUAUAUAAUGGAUGUAAAUAGAAGGCGGACUAG [JL-ex5-3.16] (puzzle: Exclusion 5) | – | – | 60.3 | 43.2 | 44 | – |
| UAAAGUAUAUAGGAUAUCUAGCUGGAUACAGCUAGAGAAGGAUGUACAUGAGGAUCACCCAUGUAAAUCAGUGA [Ex6/14-A3] (Eterna round: R97, puzzle: Exclusion 6) | 33.9 | 16.5 | – | – | – | – |
| UAUAUAUAGUAAGGAUAUGUAUUAAUCUUAUAAACAGAAGGUACUGACAUGAGGAUCACCCAUGUUUUAGUGUGGGCAUGUAGA [JMF's solution 79] (Eterna round: R96, puzzle: Exclusion NG 1) | – | – | – | – | – | 54.8 |
| AGGUCACAUGAGGAUCACCCAUGUCAGGAUAUCUACAUUGAAGCUUCGGCUUCAAUGUAGAGAAGGGACAAUUA [E1/6-B1] (Eterna round: R97, puzzle: Exclusion 1) | 341 | 75.7 | – | – | – | – |
| ACGUGAUAUCUGUCGGUGGACAUGAGGAUCACCCAUGUAAGCUUUUUGCUCAUCUUAUAACCCGGUGACAGACCUUC [Zaisbela] (puzzle: Sensor v3, turn-off variant 1) | – | – | 26.8 | 413 | 29.5 | – |
| CAUAUGUGAGGAUAUGACAAUGGUAUCUUCGGAUACCAUUGUCAGAAGGCACAUGAGGAUCACCCAUGUGGAUC [Exclusion 4 - Mod Brourd Ex 4-3: 20 v.5] (puzzle: Exclusion 4) | – | – | – | 151 | – | – |
| CCGGUUGGCGCAGGAUAUACAUGAGGAUCACCCAUGUUCAUGAGGAUCACCCAUGAGGUAAUGAUGUAGAAGGGUGGCCCGGCC [A second MS2 with the first and last base exchanged] (Eterna round: R96, puzzle: Exclusion NG 2) | 30.5 | 33.6 | – | – | – | 18.5 |
| AACUGUCUAAAGGAUAUGCUGGAUUAAUAUCUGGCAGAAGGUUAGACAUGAGGAUCACCCAUGUAAAUACCACC [Omei Ex6 A10] (Eterna round: R97, puzzle: Exclusion 6) | 106 | 19.5 | – | – | – | – |
| AUGUUAUUCUGAGGAUAUUGUUUAUUCUUCUCACAUGAGGAUCACCCAUGUUUCCGUGUUUACCGCAAGAAGGCAGUUUUGUUU [JR_ExcNG2_Sub027] (Eterna round: R96, puzzle: Exclusion NG 2) | – | – | – | – | – | 22.1 |
| AAUAACAGAGGAUAUACUGUUUUAUGUGUUUGUUAUUUUGAACAUGAGGAUCACCCAUGUAGAAGGCUGAAUAA [JMF 23] (Eterna round: R96, puzzle: Exclusion 2) | 23.9 | 25.3 | – | – | – | 18.8 |
| UUUUAACAUGAGGAUCACCCAUGUGAGGAUAUCGUAAUUUAUAUUAAUAUUAAUAAAACGAGAAGGCACAUUUU [JMF 5] (puzzle: Exclusion 1) | – | – | 138 | 143 | 85.2 | – |
| GAUUAUGCGAGCUUUAGGGACAUGAGGAUCACCCAUGUUCGUCUUAUUGAUCUAGGUACGCUGACGUACCUAAAUCU [Mod of one of jandersonlee's solutions] (puzzle: Sensor v3, turn-off variant 1) | – | – | 20.5 | 35.2 | 23.4 | – |
| AGGGAACAUGAGGAUCACCCAUGUGAGGAUAUACAAAAGAAAAGAAAAGAAAGAAGAAGUAGAAGGUACAAGAA [Neferka] (Eterna round: R96, puzzle: Exclusion 1) | 32.4 | 32.8 | – | – | – | 26.9 |
| GUCUCCAGAGGAUAUCUUUUACGCGACAUGAGGAUCACCCAUGUAGAGGAGAUUGUCAGGAGAGAAGGCUGGGACG [Eternabot (L1) Solution 56] (Eterna round: R97, puzzle: Exclusion 5) | 55.1 | 42.7 | – | – | – | – |
| ACUAGAUGAGGAUAUGCAUGUUUUCGUGUUCUUCUAGAUUAACAUGAGGAUCACCCAUGUAGAAGGCGUCAUAU [Exclusion 2 - 29] (puzzle: Exclusion 2) | – | – | – | 45 | – | – |
